# Measurements published in US20180280488A1, “Methods and Compositions for Binding Complement C3 for Targeting of Immune Cells” (University of Alaska Anchorage, priority 2017, published 2018).
# Assays:
# [1] = system: OVA-specific T cell hybridoma D011; experiment: T cell activation: BMDC co-culture with OVA-specific reporter T cell hybridoma D011 (GFP); type: cell-based, mice; conditions: BMDC 24 hours with OVA treatments, D011 T cells 24 hours; mean±standard error (n=3)
# Procedure: Bone marrow was extracted from adult BALB/c mice. Mice were euthanized and femur and humerus bones removed and cleaned of tissue. Bones were kept in RPMI in a sterile petri dish, and bone marrow was flushed from bones using RPMI and a 1 mL insulin syringe. Extracted bone marrow was filtered through a 100 μm nylon mesh filter and rinsed twice in RPMI. Bone marrow cells were then counted and plated at a density of 2×10^6 cells in culture medium (RPMI, 10% heat inactivated FBS, 1% penicillin/streptomycin). Granulocyte-macrophage colony stimulating factor (GM-CSF) and Interleukin-4 (IL-4) were added to the culture medium at 40 ng/mL and 20 ng/mL, respectively. Cells were incubated at 37° C. and medium with GM-CSF and IL-4 was replenished after 3 days. On day 6, non-adherent and loosely-adherent cells were harvested by pipetting and re-suspended in culture media.
# 10 μL of OPSS-liposomes containing OVA, control-liposomes containing OVA and free OVA matching the amount encapsulated in OPSS-liposomes (see liposome preparation) were incubated in 10 μL C3-positive and -negative serum for 1 hour at room temperature prior to addition to 80 μL of bone marrow-derived dendritic cells in RPMI (1% penicillin/streptomycin) containing 1.6×10^5 cells per well in a U-bottom plate. […] The co-cultures were then analyzed for T cell activation (GFP expression) by fluorescence microscopy and flow cytometry.
# [2] = Liver toxicity assays (plasma AST, ALT); type: in vivo; conditions: A20-OVA mice, 4 days after last injection
# Procedure: Mice were euthanized following therapy, 4 days after the last injection and blood was collected via cardiac puncture and placed in heparinized tubes. Plasma was separated from blood via centrifugation at 500×g for 15 minutes and frozen at −80° C. for subsequent analysis. Red blood cell lysis buffer (eBioscience) was added to the remaining blood for 10 minutes at room temperature. Samples were then prepared for flow cytometry analysis or frozen in culture media supplemented with 10% dimethyl sulfoxide for later use.
# Mouse plasma levels of aspartate transaminase (AST) and alanine transaminase (ALT) were determined using kits purchased from BioAssay Systems (Hayward, Calif., USA). Plasma was collected from mice as previously described. Plasma samples were diluted 1:1 in assay buffer prior to addition to a Falcon flat-bottom microtest 96-well assay plate, black/clear bottom (Becton Dickinson Labware, Franklin Lakes, N.J., USA). Absorbance was measured at 340 nm at 5 and 10 minutes using a BioTek Synergy HT plate reader, and enzyme activity was calculated according to the protocol.
Molecule,T cell activation (GFP expression) [1] [%],ALT in mouse plasma ([2]; normal range 15-84 U/L) [U/L],AST in mouse plasma ([2]; normal range 54-298 U/L) [U/L]
"ovalbumin [free OVA, Non-encapsulated ovalbumin, model tumor antigen, matched to the encapsulated amount]",14.4±0.8,,
"ovalbumin (protein, UniProt P01012 2-386, looked up, Non-encapsulated ovalbumin, model tumor antigen, matched to the encapsulated amount) Ovalbumin: GSIGAASMEFCFDVFKELKVHHANENIFYCPIAIMSALAMVYLGAKDSTRTQINKVVRFDKLPGFGDSIEAQCGTSVNVHSSLRDILNQITKPNDVYSFSLASRLYAEERYPILPEYLQCVKELYRGGLEPINFQTAADQARELINSWVESQTNGIIRNVLQPSSVDSQTAMVLVNAIVFKGLWEKAFKDEDTQAMPFRVTEQESKPVQMMYQIGLFRVASMASEKMKILELPFASGTMSMLVLLPDEVSGLEQLESIINFEKLTEWTSSNVMEERKIKVYLPRMKMEEKYNLTSVLMAMGITDVFSSSANLSGISSAESLKISQAVHAAHAEINEAGREVVGSAEAGVDAASVSEEFRADHPFLFCIKHIATNAVLFFGRCVSP",,51.2±34.7,110.4±25.6
